This is an account of results in patent US20250161359A1.

Experiment [1] has as its target PR3_10_56: PR3_10 (H44A) CD33SP SS CD28TM CAAR (human). In words: cell-based or functional assay.
The target of experiment [2] is PR3_1_30: PR3_1_(WT) CD33SP MS CD28TM CAAR (human). In words: cell-based or functional assay.
Sequence of PR3_1_30: PR3_1_(WT) CD33SP MS CD28TM CAAR (human) (chain, as listed by the source limits assumed): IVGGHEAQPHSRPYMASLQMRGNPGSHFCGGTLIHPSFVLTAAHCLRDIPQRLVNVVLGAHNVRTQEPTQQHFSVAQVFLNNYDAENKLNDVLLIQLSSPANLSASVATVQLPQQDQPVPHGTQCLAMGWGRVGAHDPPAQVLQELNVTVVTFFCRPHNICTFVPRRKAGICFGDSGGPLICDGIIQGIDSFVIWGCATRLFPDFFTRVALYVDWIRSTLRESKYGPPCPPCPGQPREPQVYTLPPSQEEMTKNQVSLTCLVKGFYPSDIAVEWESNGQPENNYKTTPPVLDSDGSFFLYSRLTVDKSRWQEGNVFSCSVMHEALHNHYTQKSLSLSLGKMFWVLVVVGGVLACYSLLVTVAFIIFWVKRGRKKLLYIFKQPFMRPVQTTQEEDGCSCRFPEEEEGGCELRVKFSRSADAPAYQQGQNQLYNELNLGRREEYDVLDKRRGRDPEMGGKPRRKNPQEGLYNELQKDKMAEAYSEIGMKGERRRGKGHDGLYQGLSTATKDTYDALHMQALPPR

Sequence of PR3_10_56: PR3_10 (H44A) CD33SP SS CD28TM CAAR (human) (chain, as listed by the source H44A H44A limits assumed): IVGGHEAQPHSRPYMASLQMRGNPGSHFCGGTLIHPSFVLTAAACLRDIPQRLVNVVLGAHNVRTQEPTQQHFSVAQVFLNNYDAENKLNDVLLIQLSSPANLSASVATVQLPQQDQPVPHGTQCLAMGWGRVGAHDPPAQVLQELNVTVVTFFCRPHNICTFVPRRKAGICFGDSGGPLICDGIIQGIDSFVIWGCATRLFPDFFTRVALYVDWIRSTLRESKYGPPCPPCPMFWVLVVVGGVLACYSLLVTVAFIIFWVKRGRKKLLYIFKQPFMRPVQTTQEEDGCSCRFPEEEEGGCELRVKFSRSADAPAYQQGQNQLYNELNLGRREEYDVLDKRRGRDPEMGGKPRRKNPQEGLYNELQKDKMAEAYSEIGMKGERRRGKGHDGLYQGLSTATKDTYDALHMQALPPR

For “anti-PR3 antibody, EMD Millipore, clone MCPR3-3, catalog #MABF973”, the CAAR killing efficiency against the lowest density IgG+-CHO-S target (MCPR3-3 #4 (L)) in experiment [1] and in experiment [2] was 65% in each case.
